From the DeepSol protein solubility set

Assay: soluble on expression in E. coli; label from the status in PepcDB or PDB records
With “MKLSAQSHASIASSLREAVDKYIADGERTVVTDIHLQPKQDSGELVIFNDDDEELSRTIIEEWVDYSEDDFYTIVERILRGEINALKDTGVLDKLAIMKPYSFVLVDEDRETVTELLLIDDEDTLLLNDELLKGLDEELDAFLKDLLEKLEHHHHHH” the “soluble on expression in E. coli” value was “soluble”. In the case of “TEPTIHKGLAGVTADVTAISKVNSDTNSLLYRGYPVQELAAKCSFEQVAYLLWNSELPNDSELKAFVNFERSHRKLDENVKGAIDLLSTACHPMDVARTAVSVLGANHARAQDSSPEANLEKAMSLLATFPSVVAYDQRRRRGEELIEPREDLDYSANFLWMTFGEEAAPEVVEAFNVSMILYAEHSFNASTFTARVITSTLADLHSAVTGAIGALKGPLHGGANEAVMHTFEEIGIRKDESLDEAATRSKAWMVDALAQKKKVMGFGHRVYKNGDSRVPTMKSALDAMIKHYDRPEMLGLYNGLEAAMEEAKQIKPNLDYPAGPTYNLMGFDTEMFTPLFIAARITGWTAHIMEQVADNALIRPLSEYNGPEQRQVP”, the “soluble on expression in E. coli” value is reported as “soluble”. For “MGSDKIHHHHHHMIIKTSFLIVIHAQYAKKVVGKKISIYFTIHSGIKIFVKMKTCARISCFLILAVCSFFDAAAQGNFLLWEITGNGLADTSYLFGTIHIRDKRVFNLGDSTYYAITHTKALYGELNLQDKSEMKQHAPELLMPSGTSLQAMLSAQDYKLVKKYCKKHIGVYALLINKIKPIYISAVVSEDLLKKEEKKPLDLYLQDYAARQGNEIGGIETFQEQLSVIDLLPLQEQADMLVEQIKNIDQEKILMEQMLQFYLNESLDSLEILVQEDTLSQEFNEAILDARNKVMLTRMETQMNREPTFFAVGAAHLAGEKGLVILLRKAGYTVRPVKRK”, the “soluble on expression in E. coli” value was “not soluble”. For “STPGPGASAPNSPMALLTLNCEKEMDDVIEDIISLESSYSDDILGFMDAGLQMTNTIPVSANLLDMYSNHALPPAGVSISNSCPSSLPAVKRELSVTPSPGMMHIMDKAGPCGKFDSYQRPDGFPVEVRALAKERQKKDNHNLIERRRRFNINDRIKELGTLIPKSNDPDMRWNKGTILKASVDYIRKLQKEQQNAKELENRQKRLEHANRHLLLRIQELEMQARAHGLTVVASSSLYSAELVARAIKQEPGMGDCTSNLYPHLPSPDMSRPTTLDLNNGTISYNDSPTEDGEPGVYDSPNKASTKLEDMLMDNTLSPVGSSDPLLSSGSPVPSNSSGSSSMDEHDNGC”, the “soluble on expression in E. coli” value was “not soluble”. In the case of “MPRVDHGSPQAGPPAPCVGILLAGGQGRRFAAASGGQDKLLARLADGTAVAVRAAAALREATDAVVAVVRPESAVLAALLRGQGCHVLESEQAREGMGASLAAAARFLLAGQVPDMPERADVCLVALADMPWVRRDTLSAVRAAACADGITVPVHQGRRGHPVAFGRSLWGELAALRGDVGARELLRRHRVAAVEVDDPGVAADVDTPGDLAGDRALEHHHHHH”, the “soluble on expression in E. coli” value is reported as “not soluble”. In the case of “MYTAIPQSGSPFPGSVQDPGLHVWRVEKLKPVPVAQENQGVFFSGDSYLVLHNGPEEVSHLHLWIGQQSSRDEQGACAVLAVQLDDYLGGRPVQHREVQGNESDLFMSYFPRGLKYQEGGVESGFKHVVPNEVVVQRLYQVKGAKNIRATERALNWDSFNTGDCFILDLGQNIFAWCGGKSNILERNKARDLALAIRDSERQGKAQVEIVTDGEEPAEMIQVLGPKPALKEGNPEEDLTADKANAQAAALYKVSDATGQMNLTKVADSSPFALELLISDDCFVLDNGLCGKIYIWKGRKANEKERQAALQVAEGFISRMQYAPNTQVEILPQGRESPIFKQFFKDWK”, the “soluble on expression in E. coli” value is reported as “soluble”. For “MGSDKIHHHHHHMAKVIKTKKGLALNLKGKPLPEMLAEPAQSPTYAVVPDDFEGVIPKVTARPGDKVRAGSALMHHKAYPEMKFTSPVSGEVIAVNRGAKRKVLSIEVKPDGLNEYESFPVGDPSALSAEQIKELLLSSGMWGFIKQRPYDIVATPDIAPRDIYITANFTAPLAPDFDFIVRGEERALQTAIDALAKLTTGKVYVGLKPGSSLGLHNAEIVEVHGPHPAGNVGVLINHTKPINRGETVWTLKATDLIVIGRFLLTGKADFTRMIAMTGSDAAAHGYVRIMPGCNVFASFPGRLTIKESHERVIDGNVLTGKKLCEKEPFLSARCDQITVIPEGDDVDELFGWAAPRLDQYSMSRAYFSWLQGKNKEYVLDARIKGGERAMIMSNEYDRVFPMDIYPEYLLKAIIAFDIDKMEDLGIYEVAPEDFATCEFVDTSKIELQRIVREGLDMLYKEMN”, the “soluble on expression in E. coli” value was “not soluble”. In the case of “MKIHPLSDVQAKQIGQGTSIWQYVVVLPGAVIGSDCNICSHCFIENAVVIGDRVTIKCGVQIWDGLRVEDDVFIGPNVTFTNDLFPRSKQHPKEFAKTVIQKGASIGANATILAGSTIGRNAMVGAGAVVTKSVPPNAIVVGNPARITGYVSTIPAQQKHSEIEVGENIGTVGQSAIPGVQFVRLPIIPDLRGSLSFAEFGQYLPFIPKRYFLVFDVQSREVRGEHAHKELHQFLVCVKGACSVMVDDGNCREEYILNTPGAALHIPPLVWGVQYKYSPDAVLMVLASDVYKPEDYIRDYDQFIALVKKLEHHHHHH”, the “soluble on expression in E. coli” value is reported as “not soluble”. For “MWTATACSIDSSPSMWNCAEVMDSTRSELLQSTPEAEDGNIEYKLKLVNPSQYRFEHLVTQMKWRLQEGRGEAVYQIGVEDNGLLVGLAEEEMRASLKTLHRMAEKVGADITVLREREVDYDSDVPRKITEVLVRKVPDNQQFLDLRVAVLGNVDSGKSTLLGVLTQGELDNGRGRARLNLFRHLHEIQSGRTSSISFEILGFNSKGEVVNYSDSRTAEEICESSSKMITFIDLAGHHKYLHTTIFGLTSYCPDCALLLVSANTGIAGTTREHLGLALALKVPFFIVVSKVDLCAKTTVERTVRQLERVLKQPGCHKVPMLVTSEDDAVTAAQQFAQSPNVTPIFTLSSVSGESLDLLKVFLNILPPLTNSKEQEELMQQLTEFQVDEIYTVPEVGTVVGGTLSSGICREGDQLVVGPTDDGCFLELRVCSIQRNRSACRVLRAGQAATLALGDFDRALLRKGMVMVSPEMNPTICSVFEAEIVLLFHATTFRRGFQVTVHVGNVRQTAVVEKIHAKDKLRTGEKAVVRFRFLKHPEYLKVGAKLLFREGVTKGIGHVTDVQAITAGEAQATMGF”, the “soluble on expression in E. coli” value was “soluble”. For “MGSDKIHHHHHHMNRVISVGFEHPKSYLDSNQSVEAKSRIDSYIDKKMDEWNKEVVYAKHLYEPSVNKEYYKRHMIEHVWRIRMSRTVQAKALHQIAKISPEAAQLYARYQDEEMLHDILFKQDALALGVTEDTIKNTEPMFATRLLMGFKYFVAEHENPLGAVAYSYLVEYVTAKITPDQVSNLKSELGSENIKGQVAHINTDLSHDHSGDMWEIVRALLFTESDIEMFIKYIDEIQDLLAMYFKELYEKTIAKNESQAA”, the “soluble on expression in E. coli” value was “not soluble”. With “MGSDKIHHHHHHMTAIANRYEFVLLFDVENGNPNGDPDAGNMPRIDPETGHGLVTDVCLKRKIRNHVALTKEGAERFNIYIQEKAILNETHERAYTACDLKPEPKKLPKKVEDAKRVTDWMCTNFYDIRTFGAVMTTEVNCGQVRGPVQMAFARSVEPVVPQEVSITRMAVTTKAEAEKQQGDNRTMGRKHIVPYGLYVAHGFISAPLAEKTGFSDEDLTLFWDALVNMFEHDRSAARGLMSSRKLIVFKHQNRLGNAPAHKLFDLVKVSRAEGSSGPARSFADYAVTVGQAPEGVEVKEML” the “soluble on expression in E. coli” value was “not soluble”. With “MSLEMNRYLSFTLFTGLSLLTTIPIEAYTLNPNKTATSILQTNVIEVRSITSVQPIVIYCPVGTVPQLPYQVWVTYSDGQGEYRQTKWSNSALSTEQSEADDKVYPIGSQYTINGFIIGDDTTENGYPITAKIEVVDTKNTISPKLIAHTIPLNNVKINGNNRLTSNRDLAIKEIISWDVSQQLYNYRDTYGLSTEGYTRSDGWDSPETKLKGHGSGHYMSALALAYAAATNPSHKEILRRNITRMVNELRECQERTFVWSEELGRYLEARDFAPEEELKKMKGTWEAFDEHKTKWATYGYGYLNAIPPHHPALIEMYRAYNNSDWVWAPYYSIHKQLAGLIDIATYMDDKSIADKALLIAKDMGLWVWNRMHYRTYVKKDGTQEERRTHPGNRYEMWNMYIAGEVGGMGESLARLSEMVSAPEEKARLIEASNCFDSPAFYEPLSKNIDDIRNRHANQHIPMIIGALRSYLSNNDTFYYHVSHNFWNLIQGRYRYSTGGVGNGEMFRQPYTQIVSMAMNGVSEGESHSNPHINETCCAYNLLKLTKDLNCLNPDDARYMDYYERTLYNQIIGSLHPEHHQTTYQYAVGLNASKPWGNETPQSTCCGGTGSENHVKYQEATYFVSDNTLWVALYMPTTLHWEEKNITLQQECLWPAKSSTIKVTAGEARFAMKLRVPYWATDGFDVKLNGISIATHYQPCSYAVIPTRQWKENDIVEITMPFTKHIDYGPDKLPAEIASKDGHQLETAWVGTLMHGPFAMTATDITNWTEATLNIDSRLASITVVEPNGPQTGTTGNLYTLMQGGRTFQPDYYRHDHTTHYFRINHIKDPTEGHHHHHH” the “soluble on expression in E. coli” value was “soluble”.
